Experimental data: patent US20130012432A1 (Novo Nordisk, published 2013)
Positions of bridges follow the written chain, without caps; N, C: chain ends. Non-standard residues stand in square brackets, D forms with d. Groups on a side chain read outwards from the residue. Primed or numbered codes have the meaning given here. *: point of attachment. X2 = (2-(2-(16-(tetrazol-5-yl)hexadecanoylamino)ethoxy)ethoxy)acetyl, O=C(CCCCCCCCCCCCCCCc1nn[nH]n1)NCCOCCOCC(=O)*; X3 = (2-(2-(15-carboxypentadecanoylamino)ethoxy)ethoxy)acetyl, O=C(O)CCCCCCCCCCCCCCC(=O)NCCOCCOCC(=O)*; biscarboxymethyl = Lys(biscarboxymethyl) = Nepsilon-bis(carboxymethyl)-L-lysine; Palmitoyl(16-(5-tetrazolyl)) = O=C(CCCCCCCCCCCCCCCc1nnn[nH]1)*; biscarboxymethyl(3) = Nepsilon-bis(carboxymethyl) on Lys; Lys(CH2CO2H)2 = N[C@@H](CCCCN(CC(=O)O)CC(=O)O)C(=O)O; C17 diacid = O=C(O)CCCCCCCCCCCCCCCC(=O)*; Hyp = O=C(O)[C@@H]1C[C@@H](O)CN1; Orn = NCCC[C@H](N)C(=O)O; Dap = NC[C@H](N)C(=O)O; AEEA = NCCOCCOCC(=O)O

B1: Ac-c[Lys-His-D-Phe-Arg-Trp-Asp]-Pro-Ser-His-Glu-Lys(biscarboxymethyl)-Lys({2-[2-(16-carboxyhexadecanoylamino)ethoxy]ethoxy}acetyl)-NH2 (peptide)
peptide: Ac-KH[dF]RWDPSHE[Lys(CH2CO2H)2]K([AEEA-C17 diacid])-NH2
modifications: lactam 1-6
SMILES: CC(=O)N[C@H]1CCCCNC(=O)C[C@@H](C(=O)N2CCC[C@H]2C(=O)N[C@@H](CO)C(=O)N[C@@H](Cc2c[nH]cn2)C(=O)N[C@@H](CCC(=O)O)C(=O)N[C@@H](CCCCN(CC(=O)O)CC(=O)O)C(=O)N[C@@H](CCCCNC(=O)COCCOCCNC(=O)CCCCCCCCCCCCCCCC(=O)O)C(N)=O)NC(=O)[C@H](Cc2c[nH]c3ccccc23)NC(=O)[C@H](CCCNC(=N)N)NC(=O)[C@@H](Cc2ccccc2)NC(=O)[C@H](Cc2c[nH]cn2)NC1=O
B2: Ac-c[Lys-His-D-Phe-Arg-Trp-Glu]-Pro-Pro-His-Glu-Lys(biscarboxymethyl)-Lys({2-[2-(16-carboxyhexadecanoylamino)ethoxy]ethoxy}acetyl)-NH2 (peptide)
peptide: Ac-KH[dF]RWEPPHE[Lys(CH2CO2H)2]K([AEEA-C17 diacid])-NH2
modifications: lactam 1-6
SMILES: CC(=O)N[C@H]1CCCCNC(=O)CC[C@@H](C(=O)N2CCC[C@H]2C(=O)N2CCC[C@H]2C(=O)N[C@@H](Cc2c[nH]cn2)C(=O)N[C@@H](CCC(=O)O)C(=O)N[C@@H](CCCCN(CC(=O)O)CC(=O)O)C(=O)N[C@@H](CCCCNC(=O)COCCOCCNC(=O)CCCCCCCCCCCCCCCC(=O)O)C(N)=O)NC(=O)[C@H](Cc2c[nH]c3ccccc23)NC(=O)[C@H](CCCNC(=N)N)NC(=O)[C@@H](Cc2ccccc2)NC(=O)[C@H](Cc2c[nH]cn2)NC1=O
B3: Ac-c[Glu-His-D-Phe-Arg-Trp-Lys]-Hyp-Hyp-Arg-Asp-Lys(biscarboxymethyl)-Lys[(2-{2-[16-(tetrazol-5-yl)hexadecanoylamino]ethoxy}ethoxy)acetyl]-NH2 (peptide)
peptide: Ac-EH[dF]RWK[Hyp][Hyp]RD[Lys(CH2CO2H)2]K([AEEA-Palmitoyl(16-(5-tetrazolyl))])-NH2
modifications: lactam 1-6
SMILES: CC(=O)N[C@H]1CCC(=O)NCCCC[C@@H](C(=O)N2C[C@H](O)C[C@H]2C(=O)N2C[C@H](O)C[C@H]2C(=O)N[C@@H](CCCNC(=N)N)C(=O)N[C@@H](CC(=O)O)C(=O)N[C@@H](CCCCN(CC(=O)O)CC(=O)O)C(=O)N[C@@H](CCCCNC(=O)COCCOCCNC(=O)CCCCCCCCCCCCCCCc2nnn[nH]2)C(N)=O)NC(=O)[C@H](Cc2c[nH]c3ccccc23)NC(=O)[C@H](CCCNC(=N)N)NC(=O)[C@@H](Cc2ccccc2)NC(=O)[C@H](Cc2c[nH]cn2)NC1=O
B4: Ac-c[Orn-His-D-Phe-Arg-Trp-Glu]-Pro-Ser-Ser-Ser-Glu-Glu-Ser-Ser-Lys({2-[2-(16-carboxyhexadecanoylamino)ethoxy]ethoxy}acetyl)-NH2 (peptide)
peptide: Ac-[Orn]H[dF]RWEPSSSEESSK([AEEA-C17 diacid])-NH2
modifications: lactam 1-6
SMILES: CC(=O)N[C@H]1CCCNC(=O)CC[C@@H](C(=O)N2CCC[C@H]2C(=O)N[C@@H](CO)C(=O)N[C@@H](CO)C(=O)N[C@@H](CO)C(=O)N[C@@H](CCC(=O)O)C(=O)N[C@@H](CCC(=O)O)C(=O)N[C@@H](CO)C(=O)N[C@@H](CO)C(=O)N[C@@H](CCCCNC(=O)COCCOCCNC(=O)CCCCCCCCCCCCCCCC(=O)O)C(N)=O)NC(=O)[C@H](Cc2c[nH]c3ccccc23)NC(=O)[C@H](CCCNC(=N)N)NC(=O)[C@@H](Cc2ccccc2)NC(=O)[C@H](Cc2c[nH]cn2)NC1=O
B5: Ac-c[Orn-His-D-Phe-Arg-Trp-Glu]-Pro-Ser-Lys-Glu-Glu-Ser-Ser-Glu-Lys({2-[2-(16-carboxyhexadecanoylamino)ethoxy]ethoxy}acetyl)-NH2 (peptide)
peptide: Ac-[Orn]H[dF]RWEPSKEESSEK([AEEA-C17 diacid])-NH2
modifications: lactam 1-6
SMILES: CC(=O)N[C@H]1CCCNC(=O)CC[C@@H](C(=O)N2CCC[C@H]2C(=O)N[C@@H](CO)C(=O)N[C@@H](CCCCN)C(=O)N[C@@H](CCC(=O)O)C(=O)N[C@@H](CCC(=O)O)C(=O)N[C@@H](CO)C(=O)N[C@@H](CO)C(=O)N[C@@H](CCC(=O)O)C(=O)N[C@@H](CCCCNC(=O)COCCOCCNC(=O)CCCCCCCCCCCCCCCC(=O)O)C(N)=O)NC(=O)[C@H](Cc2c[nH]c3ccccc23)NC(=O)[C@H](CCCNC(=N)N)NC(=O)[C@@H](Cc2ccccc2)NC(=O)[C@H](Cc2c[nH]cn2)NC1=O

These binders were tested against T1, human MC4 receptor (human, UniProt P32245 1-332) (assay: 125I-NDP-α-MSH displacement, BHK-human MC4 membranes (Assay V);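 also: Filter-retained radioactivity read by gamma counting, with affinity obtained through non-linear regression fitting of the binding curves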).
T1 construct: whole, on cells; Assayed as membranes of BHK cells stably expressing the receptor; also called melanocortin receptor subtype 4; melanocortin receptor 4
T1 sequence (P32245 whole entry): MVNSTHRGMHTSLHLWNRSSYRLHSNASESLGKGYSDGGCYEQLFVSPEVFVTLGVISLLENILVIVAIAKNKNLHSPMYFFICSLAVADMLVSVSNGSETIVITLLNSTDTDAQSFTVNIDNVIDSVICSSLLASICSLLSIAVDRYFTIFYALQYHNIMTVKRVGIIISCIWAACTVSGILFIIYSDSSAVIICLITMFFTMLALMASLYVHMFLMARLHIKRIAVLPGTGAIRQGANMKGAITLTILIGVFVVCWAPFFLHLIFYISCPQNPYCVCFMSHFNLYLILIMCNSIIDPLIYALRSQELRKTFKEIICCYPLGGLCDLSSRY
With B1 the Ki was 25 nM. B2 showed a Ki of 348 nM. In the case of B3, the Ki is reported as 21 nM. B4 gave a Ki of 25 nM. Binder Ac-EH[dF]RW[Dap][Hyp][Hyp]RDK(biscarboxymethyl(3))K([AEEA-Palmitoyl(16-(5-tetrazolyl))])-NH2 (lactam 1-6) has a Ki of 17 nM. In the case of B5, the Ki is reported as 38 nM. Ac-[Dap]H[dF]RWDPPRDK(biscarboxymethyl(3))K([AEEA-Palmitoyl(16-(5-tetrazolyl))])-NH2 (lactam 1-6) showed a Ki of 5.16 nM. Binder Ac-[Orn]H[dF]RWDPPHEK(biscarboxymethyl)K(X3)-NH2 (lactam 1-6) has a Ki of 3.4 nM. Ac-[Orn]H[dF]RWDPPRDK(biscarboxymethyl)K(X2)-NH2 (lactam 1-6) was tested, and the Ki was 0.85 nM. In the case of Ac-[Dap]H[dF]RWEPPRDK(biscarboxymethyl(3))K([AEEA-Palmitoyl(16-(5-tetrazolyl))])-NH2 (lactam 1-6), the Ki is reported as 0.7 nM.

What follows are binders tested against T2, MC1 receptor (UniProt Q01726 1-317, limits assumed) (assay: 125I-NDP-α-MSH displacement, BHK-MC1 membranes (Assay IV);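 also: membrane incubations stopped by filtration, retained radioactivity counted, Ki fitted by nonlinear regression to binding curves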).
T2 construct: whole, on cells; also called melanocortin receptor subtype 1; melanocortin receptor 1
T2 sequence (Q01726 whole entry): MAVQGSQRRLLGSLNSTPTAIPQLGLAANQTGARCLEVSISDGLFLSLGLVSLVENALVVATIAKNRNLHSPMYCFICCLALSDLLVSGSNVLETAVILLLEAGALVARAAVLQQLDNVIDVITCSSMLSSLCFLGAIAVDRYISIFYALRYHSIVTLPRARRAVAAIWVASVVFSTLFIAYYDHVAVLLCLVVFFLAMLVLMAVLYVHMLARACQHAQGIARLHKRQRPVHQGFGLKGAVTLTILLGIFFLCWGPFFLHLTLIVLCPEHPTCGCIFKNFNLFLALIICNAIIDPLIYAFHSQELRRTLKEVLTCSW
Protocol: The MC1 receptor binding assay was performed on BHK cell membranes stably expressing the MC1 receptor. […] Test compounds were dissolved in DMSO. […] Alternatively, HSA may be substituted with ovalbumin. The samples were incubated at 30° C. for 90 min. in Costar round-bottom microtiter plates. Incubation was terminated by filtration on a Packard harvester filtermate. […] The filters were washed with ice-cold 0.9% NaCl 8-10 times. […] The plates were counted in a Topcounter (1 min/well).
The data were analysed by non-linear regression analysis of binding curves, using the Windows™ program GraphPad™ Prism (GraphPad Software, USA).
In the case of Ac-[Dap]H[dF]RWDPPRDK(biscarboxymethyl(3))K([AEEA-Palmitoyl(16-(5-tetrazolyl))])-NH2 (lactam 1-6), the Ki is reported as 1830 nM. In the case of Ac-[Orn]H[dF]RWDPPHEK(biscarboxymethyl)K(X3)-NH2 (lactam 1-6), the Ki is reported as 8600 nM. Binder Ac-[Orn]H[dF]RWDPPRDK(biscarboxymethyl)K(X2)-NH2 (lactam 1-6) has a Ki of 2340 nM. In the case of Ac-[Dap]H[dF]RWEPPRDK(biscarboxymethyl(3))K([AEEA-Palmitoyl(16-(5-tetrazolyl))])-NH2 (lactam 1-6), the Ki is reported as 3850 nM.
